Reference: US20240301031A1 (JIANGSU HENGRUI PHARMACEUTICALS, published 2024)
Positions count from the first letter of the chain named. Where two headings read alike, the source gives them in different places.

B1: TACI-17Fc (Fc fusion)
chain: SCRKEQGKFYDHLLRDCISCASICGQHPKQCAYFCEDKTHTCPPCPAPEAEGAPSVFLFPPKPKDTLMISRTPEVTCVVVDVSHEDPEVKFNWYVDGVEVHNAKTKPREEQYNSTYRVVSVLTVLHQDWLNGKEYKCKVSNKALPSSIEKTISKAKGQPREPQVYTLPPSRDELTKNQVSLTCLVKGFYPSDIAVEWESNGQPENNYKTTPPVLDSDGSFFLYSKLTVDKSRWQQGNVFSCSVMHEALHNHYTQKSLSLSPGK
notes: Fused directly to Fc; two identical polypeptides
B2: TACI-9-1Fc (Fc fusion)
chain: STSCRKEQGKFYDHLLRDCISCASICGQHPKQCAYFCENKLDKTHTCPPCPAPEAEGAPSVFLFPPKPKDTLMISRTPEVTCVVVDVSHEDPEVKFNWYVDGVEVHNAKTKPREEQYNSTYRVVSVLTVLHQDWLNGKEYKCKVSNKALPSSIEKTISKAKGQPREPQVYTLPPSRDELTKNQVSLTCLVKGFYPSDIAVEWESNGQPENNYKTTPPVLDSDGSFFLYSKLTVDKSRWQQGNVFSCSVMHEALHNHYTQKSLSLSPGK
notes: two identical polypeptides
B3: TACI-9-3Fc (Fc fusion)
chain: B2 chain with T2L, K6E
notes: two identical polypeptides
B4: TACI-9-11Fc (Fc fusion)
chain: B2 chain with T2L, R5S, K6E, K10E
notes: two identical polypeptides
B5: TACI-9-13Fc (Fc fusion)
chain: B2 chain with F36Y
notes: two identical polypeptides
B6: TACI-9-9Fc (Fc fusion)
chain: B2 chain with T2R, D18T, Y35R
notes: two identical polypeptides
B7: TACI-9-7Fc (Fc fusion)
chain: B2 chain with T2R, D18A
notes: two identical polypeptides
B8: TACI-9-4Fc (Fc fusion)
chain: B2 chain with T2L, K6Q
notes: two identical polypeptides
B9: TACI-9-14Fc (Fc fusion)
chain: B2 chain with Y35A, F36Y
notes: two identical polypeptides
B10: TACI-9-6Fc (Fc fusion)
chain: B2 chain with T2R, D18T
notes: two identical polypeptides
B11: TACI-9-8Fc (Fc fusion)
chain: B2 chain with T2L, Y35A
notes: two identical polypeptides
B12: TACI-9-12Fc (Fc fusion)
chain: B2 chain with Y35A
notes: two identical polypeptides
B13: TACI-9-5Fc (Fc fusion)
chain: B2 chain with T2L, K10E
notes: two identical polypeptides
B14: TACI-9-2Fc (Fc fusion)
chain: B2 chain with T2L, R5S
notes: two identical polypeptides
B15: TACI-8 Fc (Fc fusion)
chain: SLSCRKEQGKFYDHLLRDCISCASICGQHPKQCAYFCENKLRSPVNLPPELRKQRSGEVENNSDNSGKYQGLEHRGSEASPALPGLKLSADQVALVYSDKTHTCPPCPAPEAEGAPSVFLFPPKPKDTLMISRTPEVTCVVVDVSHEDPEVKFNWYVDGVEVHNAKTKPREEQYNSTYRVVSVLTVLHQDWLNGKEYKCKVSNKALPSSIEKTISKAKGQPREPQVYTLPPSRDELTKNQVSLTCLVKGFYPSDIAVEWESNGQPENNYKTTPPVLDSDGSFFLYSKLTVDKSRWQQGNVFSCSVMHEALHNHYTQKSLSLSPGK
notes: two identical polypeptides
B16: TACI-21Fc (Fc fusion)
chain: EQGKFYDHLLRDCISCASICGQHPKQCAYFCEDKTHTCPPCPAPEAEGAPSVFLFPPKPKDTLMISRTPEVTCVVVDVSHEDPEVKFNWYVDGVEVHNAKTKPREEQYNSTYRVVSVLTVLHQDWLNGKEYKCKVSNKALPSSIEKTISKAKGQPREPQVYTLPPSRDELTKNQVSLTCLVKGFYPSDIAVEWESNGQPENNYKTTPPVLDSDGSFFLYSKLTVDKSRWQQGNVFSCSVMHEALHNHYTQKSLSLSPGK
notes: as for B1
B17: TACI-19Fc (Fc fusion)
chain: RKEQGKFYDHLLRDCISCASICGQHPKQCAYFCEDKTHTCPPCPAPEAEGAPSVFLFPPKPKDTLMISRTPEVTCVVVDVSHEDPEVKFNWYVDGVEVHNAKTKPREEQYNSTYRVVSVLTVLHQDWLNGKEYKCKVSNKALPSSIEKTISKAKGQPREPQVYTLPPSRDELTKNQVSLTCLVKGFYPSDIAVEWESNGQPENNYKTTPPVLDSDGSFFLYSKLTVDKSRWQQGNVFSCSVMHEALHNHYTQKSLSLSPGK
notes: as for B1
B18: TACI-16Fc (Fc fusion)
chain: LSCRKEQGKFYDHLLRDCISCASICGQHPKQCAYFCEDKTHTCPPCPAPEAEGAPSVFLFPPKPKDTLMISRTPEVTCVVVDVSHEDPEVKFNWYVDGVEVHNAKTKPREEQYNSTYRVVSVLTVLHQDWLNGKEYKCKVSNKALPSSIEKTISKAKGQPREPQVYTLPPSRDELTKNQVSLTCLVKGFYPSDIAVEWESNGQPENNYKTTPPVLDSDGSFFLYSKLTVDKSRWQQGNVFSCSVMHEALHNHYTQKSLSLSPGK
notes: as for B1
B19: TACI-18Fc (Fc fusion)
chain: CRKEQGKFYDHLLRDCISCASICGQHPKQCAYFCEDKTHTCPPCPAPEAEGAPSVFLFPPKPKDTLMISRTPEVTCVVVDVSHEDPEVKFNWYVDGVEVHNAKTKPREEQYNSTYRVVSVLTVLHQDWLNGKEYKCKVSNKALPSSIEKTISKAKGQPREPQVYTLPPSRDELTKNQVSLTCLVKGFYPSDIAVEWESNGQPENNYKTTPPVLDSDGSFFLYSKLTVDKSRWQQGNVFSCSVMHEALHNHYTQKSLSLSPGK
notes: as for B1
B20: TACI-20Fc (Fc fusion)
chain: KEQGKFYDHLLRDCISCASICGQHPKQCAYFCEDKTHTCPPCPAPEAEGAPSVFLFPPKPKDTLMISRTPEVTCVVVDVSHEDPEVKFNWYVDGVEVHNAKTKPREEQYNSTYRVVSVLTVLHQDWLNGKEYKCKVSNKALPSSIEKTISKAKGQPREPQVYTLPPSRDELTKNQVSLTCLVKGFYPSDIAVEWESNGQPENNYKTTPPVLDSDGSFFLYSKLTVDKSRWQQGNVFSCSVMHEALHNHYTQKSLSLSPGK
notes: as for B1
B21: TACI-7 Fc (Fc fusion)
chain: FPQGLWTGVAMRSCPEEQYWDPLLGTCMSCKTICNHQSQRTCAAFCRSLSCRKEQGKFYDHLLRDCISCASICGQHPKQCAYFCENKLRSPVNLPPDKTHTCPPCPAPEAEGAPSVFLFPPKPKDTLMISRTPEVTCVVVDVSHEDPEVKFNWYVDGVEVHNAKTKPREEQYNSTYRVVSVLTVLHQDWLNGKEYKCKVSNKALPSSIEKTISKAKGQPREPQVYTLPPSRDELTKNQVSLTCLVKGFYPSDIAVEWESNGQPENNYKTTPPVLDSDGSFFLYSKLTVDKSRWQQGNVFSCSVMHEALHNHYTQKSLSLSPGK
notes: two identical polypeptides

Key:
[1] = biological target: T1, human BAFF (10056-HNCH, Sino biological) (human, UniProt Q9Y275 134-285); test: ELISA, BAFF coated, fusion protein titrated
T1 construct: Bought protein
Procedure: (§1) The binding activity of the antibodies or fusion proteins for BAFF, APRIL, and IL-12/23 p40 was assayed by the ELISA method (coating an antigen protein). The specific procedures were as follows:
(§2) A BAFF (Sino biological, 10056-HNCH), APRIL (R&D Systems, 5860-AP-010/CF), or IL-12/23 p40 (Sino biological, 10052-H08H) protein was diluted to 1 μg/mL with a PBS (BasalMedia, B320) buffer at pH 7.4, and added to a 96-well microplate (Corning, 3590) at 100 μL/well. The plate was incubated at 4° C. overnight. After the liquid was discarded, 300 μL of 5% skim milk (BD, 232100) diluted with PBS was added to each well for blocking, and the plate was incubated at 37° C. for 2 h. After the blocking was completed, the blocking solution was discarded, and the plate was washed 3 times with a PBST buffer (PBS at pH 7.4 containing 0.1% tween-20). 100 μL of test antibody or fusion protein solution diluted in a gradient was added to each well, and the plate was incubated at 37° C. for 1 h. After the incubation was completed, the plate was washed 3 times with PBST. […] The plate was washed 3 times with PBST. 100 μL of TMB chromogenic substrate (KPL, 5120-0077) was added to each well, and the plate was incubated at room temperature for 10-15 min. The reaction was stopped by adding 50 μL of 1 M H₂SO₄ to each well. The plate was read for absorbance values at 450 nm on a microplate reader, the binding curves of the antibodies to an antigen were fitted with software, and the EC₅₀ values were calculated.

[2] = biological target: T1, human BAFF (10056-HNCH, Sino biological); test: competition ELISA: biotin-labeled BAFF to coated BAFF-R
Procedure: The blocking activity of the antibodies and the fusion proteins for receptors and ligands such as BAFF/BAFF-R, BAFF/BCMA, BAFF/TACI, APRIL/BCMA, APRIL/TACI, and p40/IL-12R1 was assayed by the ELISA method. The specific procedures were as follows:
A receptor protein was diluted to 2 μg/mL with PBS at pH 7.4 (BasalMedia, B320) and added to a 96-well microplate (Corning, 3590) at 100 μL/well. The plate was incubated at 4° C. overnight. After the liquid was discarded, 200 μL of 1% Casein blocking solution (Thermo, 37528) was added to each well for blocking, and the plate was incubated at 37° C. for 2 h. After the blocking was completed, the blocking solution was discarded, and the plate was washed 3 times with a PBST buffer (PBS at pH 7.4 containing 0.1% tween-20) for later use. A biotin-labeled ligand protein at a fixed concentration was mixed with the antibody or fusion protein diluted in gradient, pre-incubated at 37° C. for 30 min, and added to a blocked microplate. The plate was incubated at 37° C. for 1.5 h. After the incubation was completed, the plate was washed 3 times with PBST. 100 μL of streptavidin-HRP (Invitrogen, 434323, diluted at a ratio of 1:4000) was added to each well, and the plate was incubated at 37° C. for 1 h. The supernatant was removed, and the plate was washed 3 times with PBST. 100 μL of TMB chromogenic substrate (KPL, 5120-0077) was added to each well, and the plate was incubated at room temperature for 10-15 min. The reaction was stopped by adding 50 μL of 1 M H₂SO₄ to each well. The plate was read for absorbance values at 450 nm on a microplate reader, the curves for the inhibition of the binding of the ligands to the receptors were fitted with software, and the IC₅₀ values were calculated.

[3] = biological target: T1, human BAFF (10056-HNCH, Sino biological); test: ELISA, BAFF coated, fusion protein titrated; remark: listed apart in the source
Procedure: as §1, §2

Row | EC50 [1] | IC50 [2] | EC50 [3] | Binder
1 | 0.996 nM | 2.82 nM |  | B1
2 |  |  | 0.382 nM | B2
3 |  |  | 0.265 nM | B3
4 |  |  | 0.195 nM | B4
5 |  |  | 0.433 nM | B5
6 |  |  | 0.937 nM | B6
7 |  |  | 0.727 nM | B7
8 |  |  | 0.469 nM | B8
9 |  |  | 0.223 nM | B9
10 |  |  | 0.367 nM | B10
11 |  |  | 0.2 nM | B11
12 |  |  | 0.122 nM | B12
13 |  |  | 0.146 nM | B13
14 |  |  | 0.279 nM | B14
15 |  | 22.5 nM |  | B15
16 | 9.8 nM | 2520 nM |  | B16
17 | 4.99 nM | 2220 nM |  | B17
18 | 0.599 nM | 2.22 nM |  | B18
19 | 0.992 nM | 3.26 nM |  | B19
20 | 7.19 nM | 2360 nM |  | B20
21 |  | 27.9 nM |  | B21
